This series is described as follows: yeast display, Sf9 membrane polyspecificity reagent, FACS + sequencing; frameworks hold sequencing errors. In outline: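 In a synthetic yeast display library (Saccharomyces cerevisiae BJ5465), nanobody expression was induced with galactose for 36–48 hours. FACS gates were set low and high (top ~1%) using anti-HA fluorescence for expression and streptavidin fluorescence for binding of the Sf9 membrane reagent. Each polyreactivity label is drawn from the gate of origin.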
On to “QVQLVESGGGLVQAGGSHRLSCAASGRIFGPYTMGWYRQAPGKERELVAAISLSGGSTYYADSVKGRFTISRDNAKNTVYLQMNRLKAEDTAVYYCNADHPFPQYEGGSWGQGTQVTVSS”, for which the “polyreactivity (PSR sort gate)” value was “low polyreactivity”.

“QVQLVESGGGLVQAGGSHRLSCAASGRIFSYNSMGWYRQAPGKERELVAAITSGGSTYYADSVKGRFTISRDNAKNTVYLQMNSLKPEDTAVYYCAVRSYYFVSRYTRTLYGFDYWGQGTQVTVSS”: the “polyreactivity (PSR sort gate)” value is recorded as “low polyreactivity”.

With “QVQLVESGGGLVQAGGSHRLSCAASGRIIHGYAMGWYRQAPGKERELVARISFSGGRTYYADSVKGRFTISRDNAKNTVYLQKNSLIPEDTAVYYCNVRVWSYYYPGRDSDYWGQGTQVTVSS”, the “polyreactivity (PSR sort gate)” value is recorded as “high polyreactivity”.

In the case of “QVQLVESGGGLVQAGGSHRLSCAASGRPSAVNALGWSRQAPGKERELVAAITYGGDSTFYADSVKGRFTISRDNAKNTVYLQMNSLKPEDTAVYYCNADIWFIWHSFGWGYDYWGQGTQVTVSS”, the “polyreactivity (PSR sort gate)” value was “low polyreactivity”.

For the sequence “QVQLVESGGGLVQAGGSHRLSCAASGRTFRYNAMGWYRQAPGKERELVAAISGRGSSTYYADSVKGRFTISRDNAMNTVYLQMNSLKPEETAVYYCAALPASVRRPGWHDYWGQGTQVTVSS”, the “polyreactivity (PSR sort gate)” value is reported as “high polyreactivity”.

On to “QVQLVESGGGLVQAGGSHRLSCAASGRTFYRYPMGWYRQAPGKERELVATINSGTSTSYADSVKGRFTISRDNAKYTVYLQMNSLKPEDTAVYYCAAKLWTLSFSSRFGGMYYWGQGTQVTVSS”, for which the “polyreactivity (PSR sort gate)” value is recorded as “high polyreactivity”.

For “QVQLVESGGGLVQAGGSHRLSCAASGRTFYSYPMGWYRQAPGKEREIVAAIHWSGTTTYADSVKGRFTISRDNAKNTVYLEMNSLKPDATAVYYCAADRVSYIGAGWFDYWGQGTQVTVSS”, the “polyreactivity (PSR sort gate)” value is reported as “high polyreactivity”.

Regarding “QVQLVESGGGLVQAGGSHRLSCAASGSIFAIYAMGWYRQAPGKERELVAAISSSSGSTYYADSVKGRFTISRDNAKNTVYLQMNSLKPEDTAVYYCAAESGRRIKYWRGYYYWGQGTQVTVSS”, the “polyreactivity (PSR sort gate)” value is recorded as “low polyreactivity”.

Take “QVQLVESGGGLVQAGGSHRLSCAASGSIFRSYAMGWYRQAPGKERELVASISRRGGSTYYADSVKGRFTISRDNAKNTVYLQMNSLIPEDTAVYYCAAVRYNSRVSTTPSEMYYWGQGTQVTVSS”: the “polyreactivity (PSR sort gate)” value is recorded as “low polyreactivity”.

For the sequence “QVQLVESGGGLVQAGGSHRLSCAASGSIFTINPMGWYRQAPGKERELVAAIRSGGGTNYADSVKGRFTISRDNAKNTVYLQMISLKPEDTAVYYCAADLWAGKYGEYDYWGQGTQVTVSS”, the “polyreactivity (PSR sort gate)” value is recorded as “high polyreactivity”.

Turning to “QVQLVESGGGLVQAGGSHRLSCAASGSIFTWNGMGWYRQAPGKERELVAAISNGASTNYADSVKGRFTISRDNAKNTVYLQMNSLKPEDTEVDYCAAKSTGRYDYWGQGTQVTVSS”, the “polyreactivity (PSR sort gate)” value is “low polyreactivity”.

As for “QVQLVESGGGLVQAGGSHRLSCAASGSIFVYNAMGCYIQAPGKERELVAGITFIGGSTYYADSVKGRFTISRDNAKNTVYLQMNSLKPEDTAVYYCNADVAPGIFYGYDSWGQGTQVTVSS”, the “polyreactivity (PSR sort gate)” value is “low polyreactivity”.

As to “QVQLVESGGGLVQAGGSHRLSCAASGSTFKNYPMGGYRQAPGQEREFVAAINVSGARTYYADSVKGRFTISRDNAKNTVYLQMNSLKPEDTAVYYCAAYYSGVGYDYWGQGTQVTVSS”, the “polyreactivity (PSR sort gate)” value is “high polyreactivity”.

On to “QVQLVESGGGLVQAGGSHRLSCAASGSTFLRYAMGWYRQAPGKERELVAAITASGGSTYYADSVKGRFTISRDNAKNTVYLQMNCLKAEDTAVYYCAADGRFIGKNSHDLWIYGYYYWGQGTQVTVSS”, for which the “polyreactivity (PSR sort gate)” value is recorded as “low polyreactivity”.

With “QVQLVESGGGLVQAGGSHRLSCAASGSTFQYYAMGWYRQAPGKERELVAAISKSGGITYYADSVKGRFTISRDYAKYTVYLQMNILKPEDTAVYYCNAYSASGYDYWGQGSQVTVSS”, the “polyreactivity (PSR sort gate)” value is on record as “high polyreactivity”.

On to “QVQLVESGGGLVQAGGSHRLSCAASGSTFTTNAMGWYRQAPGKERELVAAISRRGGSTYYADSVKGRFTISRDNAKNTVYLQMNSLKPEDTAVYYCNAVRAEYEFDYWGQGTQVTVSS”, for which the “polyreactivity (PSR sort gate)” value is recorded as “high polyreactivity”.

For “QVQLVESGGGLVQAGGSHRLSCAASGSTFYRYAMGWYRQAPGKEREFVAAISTRGGSTHYADSVKGRFTISRDNAKNTVYLQMNSLKPEDTAVYYCNARGYYSVPSNTGIRYYRFDYWGQGTQVTLSS”, the “polyreactivity (PSR sort gate)” value is reported as “low polyreactivity”.

With “QVQLVESGGGLVQAGGSHRLSCAASGYTFPLYAMGWYRQAPGKERELVADINIGGASTYYADSVKGRFTISRDNAKNTVYLQMNSLKPEDTAVYYCAKEYYDGYFPTFDYDYWGQGTQVTVSS”, the “polyreactivity (PSR sort gate)” value is recorded as “low polyreactivity”.

With “QVQLVESGGGLVQAGGSHRLSCAATGLTFAYYDMGWYRQAPGKERELVAAITSGGTTNYADSVKGRFTISRDNAKNTVYLQMNSLKPEDTAVYYCNADYYSRIVGVRIYDYWGQGTQVTVSS”, the “polyreactivity (PSR sort gate)” value is recorded as “low polyreactivity”.

For the sequence “QVQLVESGGGLVQAGGSHRLSCPASGLTFYSNAMGWYRQSPGKERELVASISYRGGITYYADSLKGRFTISRDNAKNTVYLQMNSLKPEDTAVYYGAAGRKGSMYYWGQGTQVTVSS”, the “polyreactivity (PSR sort gate)” value is “high polyreactivity”.

As for “QVQLVESGGGLVQAGGSHRLSCSASGRIFARNVMGWYRQAPGKERELVAAITYSGGRTYYADSVKGRFTISRDNAKNTVYLQMNSLKPEDTAVYYCNAKSFSPPGYRGFDYWGQGTQVTVSS”, the “polyreactivity (PSR sort gate)” value was “low polyreactivity”.

“QVQLVESGGGLVQAGGSHRLSFAASGSIFWRNAMGWYRQAPGKERELVAVISGGSTYADSVKGRFTISRDNAKNTVYLKMNSLKPEDTAVYFCNADLYVSSYPKGYDYWGQGTQVTVSS”: the “polyreactivity (PSR sort gate)” value is recorded as “low polyreactivity”.

For the sequence “QVQLVESGGGLVQAGGSHRLSSAASGSTFAYHHMGWYRQAPGKEREFVADIRSGGNTNYADSVKGRFTISRDNAKKTVYLLMNSLNPEDTAVYYCATDGYRIDVYHPDYRYDYWGQGSQVTVSS”, the “polyreactivity (PSR sort gate)” value is recorded as “low polyreactivity”.

For “QVQLVESGGGLVQAGGSIRISCAASGSIFIIYAMGWYRQATGKEWELVAGIRGRCGSTYYADSVKGRFTISRDNAKNTVYLQMNSLKPEDTAVYYCDASVYRGYNYWGQGTQVTVSW”, the “polyreactivity (PSR sort gate)” value is given as “high polyreactivity”.

For the sequence “QVQLVESGGGLVQAGGSIRLSCAASGFISYYYAMGWYRQAPGKERELVAAITKSGGSTYYADSVKGRFTISRDNAKNTVYLQMNSLKPEDTAVDYCAAVRSTRNSTSRLYGYWGQGTQVNVSS”, the “polyreactivity (PSR sort gate)” value is “low polyreactivity”.

In the case of “QVQLVESGGGLVQAGGSIRLSCAASGFTFDQYAMGWYRQAPGKERELVAAISSGTRTYYADSVKGRFTISRDNAKNTVYLQMNSLKPEDTAVYYCIARSVRYRDLYDYWGQGTQVTVSS”, the “polyreactivity (PSR sort gate)” value was “low polyreactivity”.

In the case of “QVQLVESGGGLVQAGGSIRLSCAASGITFRPNAMGWYRQAPGKERELVAAISSGDGTYADSVKGRFTISRDNAKNTVYLQMNSLKPEDTAVYYCNATGQSYVTSEYDYWGQGTQVTVSS”, the “polyreactivity (PSR sort gate)” value is “low polyreactivity”.

Turning to “QVQLVESGGGLVQAGGSIRLSCAASGRIFHLYAMGWYRQAPGKERELVAAISRGGDTYYADSVKGRFTISRDNAKNTVYLQMYSLKPEDTAVYYCAAGRWVYTVGYYPVGYYYWGQGTQVTVSS”, the “polyreactivity (PSR sort gate)” value is “high polyreactivity”.

“QVQLVESGGGLVQAGGSIRLSCAASGRIFKGYAMGSYRQAPGKERELVAAISSRGGITYYADSVKGRFTISRDNAKNSVYLEMNSLNPEDTAVYYCAAVYKWSRYGGYKYWGQGTQVTVSS”: the “polyreactivity (PSR sort gate)” value was “low polyreactivity”.

In the case of “QVQLVESGGGLVQAGGSIRLSCAASGRIFQYYAMGWYRQAPGKERELVAAISRSGGRTRYADSVKGRFTISRDNAKNTVYLQMNSLKPEDTAVYYCAASYGYDSTSLYDYWGQGTQVTVSS”, the “polyreactivity (PSR sort gate)” value is “high polyreactivity”.

In the case of “QVQLVESGGGLVQAGGSIRLSCAASGRTFHYNVMGGYRQAPGNERELVAAITNTGGSTYYADSVKGRFTISRDNAKNTVYLQMYSLKPVDTAVYYCAAVIWGRRYGAYPYEYWGQGTQVTVSS”, the “polyreactivity (PSR sort gate)” value is reported as “low polyreactivity”.

Take “QVQLVESGGGLVQAGGSIRLSCAASGSIFGAYAMGWYRQAPGKERELVATITLRDGSTYYADSVKGRFTSSRDNAKNTVYLQMNSLKPEDTAVYYCATYYSAINYGWSKTILYDYWGQGTQVTVSS”: the “polyreactivity (PSR sort gate)” value is reported as “low polyreactivity”.

Turning to “QVQLVESGGGLVQAGGSIRLSCAASGSIFRIYVMGWYRQAPGQERELVAAINSGGRTKYADSVKARFTISRDNAKNTVYLQMNSLKPEDTAVYYCAAAFQYRKGVSSLYASWGQGTQVTLSS”, the “polyreactivity (PSR sort gate)” value is “high polyreactivity”.

As to “QVQLVESGGGLVQAGGSIRLSCAASGSTFGGNAMGWYRQAPGKERELVAAITGTGGRTFYADSVKGRFTISRDNAKNTVYLQMNSLKPEDTAVYFCAADSYIYSVNYWGQGTQVTVSS”, the “polyreactivity (PSR sort gate)” value is recorded as “low polyreactivity”.

Take “QVQLVESGGGLVQAGGSIRLSCAASGSTFRVYAMGWYRQAPGKERELVAAISSSGGITYYADSVKGRFTISRDNAKNTVYLQMNSLKPEDTAVYYCAKGTVIHVLYDYWGQGTQVTVSS”: the “polyreactivity (PSR sort gate)” value is reported as “low polyreactivity”.

With “QVQLVESGGGLVQAGGSIRLSCAASGSTFYAYAMGWYRQAPGKERELVAAIDTGGSTYYADSVKGRFTISRDNAKNTVYLQMNSLKPEDTAVYYCNAVVDTTEYPYEYDYWGQGTQVTVSS”, the “polyreactivity (PSR sort gate)” value was “low polyreactivity”.

With “QVQLVESGGGLVQAGGSIRLSCAASVFTFRANGMGWYRKAPGKERELVATITSGGTTNYADSVKGRFTISRDNAKNTVYLQMNSLIPEDTAVYYCNAGSVSDRQMDYWGQGTQGTVSS”, the “polyreactivity (PSR sort gate)” value is “low polyreactivity”.

Turning to “QVQLVESGGGLVQAGGSIRLSCAPSGSPNVTYDMGWYRQAPGKESELVASISRGGSTKYADSVKGRFTISRDNAKNTVFLQMNSLKPEDTAVFYGAAKAKNYRLGPYDYWGQGTQVTVSS”, the “polyreactivity (PSR sort gate)” value is listed as “low polyreactivity”.

On to “QVQLVESGGGLVQAGGSIRLSCSASGRIFNRNAMGWYRKAPGKERELVAAISSDTSTNYADSVKGRFTISRDNAKNNVYLQMNSLKPEDTAVYYCNADGYYDMDYWGQGTQVTVSS”, for which the “polyreactivity (PSR sort gate)” value was “low polyreactivity”.

As for “QVQLVESGGGLVQAGGSIRLTCAASGLIIGVYAKGWYRQAPGKERELVAAITDGGSTYYADSVKGRFTISRDNEQNTVSLQMNSVKPEDTAVYYCAREQGVNRNHDYWGQGTQVTVSS”, the “polyreactivity (PSR sort gate)” value is “low polyreactivity”.

For the origin of these results see the nanobody polyreactivity screen of Harvey et al. (2022).
